Source: patent US8187838B2, “β-Galactoside-α2, 6-sialyltransferase, a gene encoding thereof, and a method for producing thereof” (Japan Tobacco Inc., priority 2006, dated 2012)

What was measured:
[1] = Sialic acid transfer reaction using various glycosyl acceptor substrates (monosaccharides, disaccharides, trisaccharide); format: biochemical; conditions: for Sialyltransferase activity: pH 5.0, 30° C., 500 mM NaCl
Source text: Cell homogenates prepared from E. coli cells into which JT-ISH-224-derived N1C0 had been introduced and from Photobacterium damselae strain JT0160 were each purified by ion exchange chromatography and hydroxyapatite chromatography to give an electrophoretically single band. The thus purified β-galactoside-α2,6-sialyltransferases were used in the following experiment in order to examine the presence or absence of sialyltransferase activity toward various monosaccharides, disaccharides and trisaccharides.
A reaction solution (24 μl) was prepared to contain CMP-^14C-NeuAc-containing CMP-NeuAc as a glycosyl donor substrate (10.9 nmol (8485 cpm), final concentration in the reaction solution: 0.455 mM), any of various glycosyl acceptor substrates dissolved in 20 mM cacodylate buffer (pH 5.0) (1 μmol, final concentration in the reaction solution: 42 mM), sialyltransferase (3.0 mU for JT-ISH-224-derived N1C0, 4.3 mU for JT0160) and NaCl (final concentration in the reaction solution: 500 mM), and reacted at 30° C. for 2 minutes or 60 minutes. The monosaccharides used as glycosyl acceptor substrates were the following 8 types: methyl-α-D-galactopyranoside (Gal-α-OMe), methyl-β-D-galactopyranoside (Gal-β-OMe), methyl-α-D-glucopyranoside (Glc-α-OMe), methyl-β-D-glucopyranoside (Glc-β-OMe), methyl-α-D-mannopyranoside (Man-α-OMe), methyl-β-D-mannopyranoside (Man-β-OMe), N-acetylgalactosamine ([…]), and N-acetylglucosamine ([…]). The disaccharides used were the following 5 types: lactose (Gal-β1,4-Glc), N-acetyllactosamine (Gal-β1,4-GlcNAc), methyl-β-D-galactopyranosyl-β1,3-N-acetylglucosaminide (Gal-β1,3-GlcNAc-β-OMe), methyl-α-D-galactopyranosyl-α1,3-galactopyranoside (Gal-α1,3-Gal-α-OMe), and methyl-β-D-galactopyranosyl-β1,3-galactopyranoside (Gal-β1,3-Gal-β-OMe). The trisaccharide used was 2′-fucosyllactose (Fuc-α1,2-Galβ1,4-Glc). It should be noted that the final concentration was set to 8.4 mM for the sugar chains shown in Table 4-2, i.e., methyl-α-D-galactopyranosyl-α1,3-[…] (Gal-α1,3-Gal-α-OMe), methyl-β-D-galactopyranosyl-β1,3-galactosaminide (Gal-β1,3-Gal-β-OMe) and 2′-fucosyllactose (Fuc-α1,2-Galβ1,4-Glc).
After completion of the enzymatic reaction, 1.98 ml of 5 mM phosphate buffer (pH 6.8) was added to the reaction solution to stop the enzymatic reaction. Then, the enzymatic reaction solution was diluted with 5 mM phosphate buffer (Ph 6.8) and applied in a volume of 2 ml to a AG1-×2Resin (PO4^3− form, 0.2×2 cm) column. This column was prepared as follows: AG1-×2Resin (OH^− form, BIO-RAD) was suspended in 1 M phosphate buffer (pH 6.8), and after 30 minutes, the resin was washed with distilled water and then suspended in distilled water. The eluate (0 to 2 ml) from this column was measured for its radioactivity. The eluate from this column contains the unreacted glycosyl acceptor substrate and the ^14C-NeuAc (N-acetylneuraminic acid)-bound reaction product which was generated by the reaction, whereas unreacted CMP-^14C-NeuAc is still retained on the column. Thus, the radioactivity of ^14C from each sialic acid-containing sugar chain generated as a result of the enzymatic reaction arises exclusively from the reaction product, so that the radioactivity of this fraction can be used to calculate the enzyme activity.
In the manner described above, the radioactivity of NeuAc transferred to each glycosyl acceptor substrate was measured to calculate the amount of transferred sialic acid.

[2] = Confirmation of binding mode of sialic acid with pyridylaminated lactose, HPLC of product; format: biochemical; conditions: crude enzyme solution, CMP-NeuAc, 25° C., 18 hours
Method: To determine the binding mode of sialic acid, a reaction using PA-lactose as a substrate was then performed. The enzymatic reaction was accomplished by using the resulting crude enzyme solution and a pyridylaminated sugar chain as a glycosyl acceptor substrate. The pyridylaminated sugar chain used for analysis was pyridylaminated lactose (Galβ1-4Glc-PA, Takara Bio Inc., Japan). To 5 μl of the crude enzyme solution, 1.5 μl of 5 mM CMP-NeuAc and 1.5 μl of 10 pmol/μl glycosyl acceptor substrate were added and reacted at 25° C. for 18 hours. After the reaction, the reaction solution was treated at 100° C. for 2 minutes to inactivate the enzyme, followed by HPLC to analyze the reaction product. The HPLC system used was Shimadzu LC10A (Shimadzu Corporation, Japan) and the analytical column used was Takara PALPAK Type R (Takara Bio Inc., Japan). […] The analysis was performed under the following conditions: flow rate: 1 ml/min, column temperature: 40° C., detection: fluorescence (Ex: 320 nm, Em: 400 nm).
The crude enzyme solution prepared in (4) above from the ISH224-N1C0 or ISH224-N0C0 clone was used to examine whether sialyltransferase expressed by E. coli cells into which ISH224-N0C0/pTrc or ISH224-N1C0/pTrc had been introduced had β-galactoside-α2,6-sialyltransferase activity. […] As a result, PA-6′-sialyllactose (Neu5Acα2-6Galβ1-4Glc-PA) was detected, as in the case of Example 1.

B1: ISH224-N1C0 (protein, listed as Photobacterium sp.)
chain: MSEENTQSIIKNDINKTIIDEEYVNLEPINQSNISFTKHSWVQTCGTQQLLTEQNKESISLSVVAPRLDDDEKYCFDFNGVSNKGEKYITKVTLNVVAPSLEVYVDHASLPTLQQLMDIIKSEEENPTAQRYIAWGRIVPTDEQMKELNITSFALINNHTPADLVQEIVKQAQTKHRLNVKLSSNTAHSFDNLVPILKELNSFNNVTVTNIDLYDDGSAEYVNLYNWRDTLNKTDNLKIGKDYLEDVINGINEDTSNTGTSSVYNWQKLYPANYHFLRKDYLTLEPSLHELRDYIGDSLKQMQWDGFKKFNSKQQELFLSIVNFDKQKLQNEYNSSNLPNFVFTGTTVWAGNHEREYYAKQQINVINNAINESSPHYLGNSYDLFFKGHPGGGIINTLIMQNYPSMVDIPSKISFEVLMMTDMLPDAVAGIASSLYFTIPAEKIKFIVFTSTETITDRETALRSPLVQVMIKLGIVKEENVLFWADLPNCETGVCIAV
In the case of B1, the “acceptor substrate specificity compared to the known JT0160 enzyme (in words)” value ([1]; 14 monosaccharides, disaccharides and trisaccharide) is reported as “wider range of acceptor substrate specificity”, the “Sialyltransferase activity Relative activity (%)” value ([1]; acceptor 2′-Fucosyllactose (Fuc-α1,2-Galβ1,4-Glc), 8.4 mM, lactose = 100) is reported as 92.1% and the Sialyltransferase activity ([1]; acceptor 2′-Fucosyllactose (Fuc-α1,2-Galβ1,4-Glc), 8.4 mM) is reported as 1.316 nmol/min. For the same molecule, the Sialyltransferase activity ([1]; acceptor Lactose (Galβ1,4-Glc), 42 mM, Table 4-1) was 1.875 nmol/min, the “Sialyltransferase activity Relative activity (%)” value ([1]; acceptor Lactose (Galβ1,4-Glc), 42 mM, Table 4-1, set to 100) was 100.0% and the Sialyltransferase activity ([1]; acceptor Lactose (Galβ1,4-Glc), series of Table 4-2 (other acceptors 8.4 mM)) was 1.428 nmol/min. For the same molecule, the “Sialyltransferase activity Relative activity (%)” value ([1]; acceptor Lactose (Galβ1,4-Glc), series of Table 4-2, set to 100) was 100.0%, the “Sialyltransferase activity Relative activity (%)” value ([1]; acceptor Methylαgalactopyranoside (Galα-OMe), 42 mM, lactose = 100) was 2.0% and the Sialyltransferase activity ([1]; acceptor Methylαgalactopyranoside (Galα-OMe), 42 mM) was 0.038 nmol/min. For the same molecule, the “Sialyltransferase activity Relative activity (%)” value ([1]; acceptor Methylαgalactopyranosyl α1,3-galactopyranoside (Galα1,3-Galα-OMe), 8.4 mM, lactose = 100) was 1.6%, the Sialyltransferase activity ([1]; acceptor Methylαgalactopyranosyl α1,3-galactopyranoside (Galα1,3-Galα-OMe), 8.4 mM) was 0.023 nmol/min and the “Sialyltransferase activity Relative activity (%)” value ([1]; acceptor Methylαglucopyranoside (Glcα-OMe), 42 mM, lactose = 100) was 0.4%. For the same molecule, the Sialyltransferase activity ([1]; acceptor Methylαglucopyranoside (Glcα-OMe), 42 mM) was 0.008 nmol/min, the “Sialyltransferase activity Relative activity (%)” value ([1]; acceptor Methylαmannopyranoside (Manα-OMe), 42 mM, lactose = 100) was 0.5% and the Sialyltransferase activity ([1]; acceptor Methylαmannopyranoside (Manα-OMe), 42 mM) was 0.010 nmol/min. The “Sialyltransferase activity Relative activity (%)” value ([1]; acceptor Methylβ-galactopyranosylβ1,3-N-acetylglucosaminide (Galβ1,3-GlcNAcβ-OMe), 42 mM, lactose = 100) was 76.5%, the Sialyltransferase activity ([1]; acceptor Methylβ-galactopyranosylβ1,3-N-acetylglucosaminide (Galβ1,3-GlcNAcβ-OMe), 42 mM) was 1.435 nmol/min and the “Sialyltransferase activity Relative activity (%)” value ([1]; acceptor Methylβgalactopyranoside (Galβ-OMe), 42 mM, lactose = 100) was 59.2%. For the same molecule, the Sialyltransferase activity ([1]; acceptor Methylβgalactopyranoside (Galβ-OMe), 42 mM) was 1.110 nmol/min, the “Sialyltransferase activity Relative activity (%)” value ([1]; acceptor Methylβgalactopyranosyl β1,3-galactopyranoside (Galβ1,3-Galβ-OMe), 8.4 mM, lactose = 100) was 67.5% and the Sialyltransferase activity ([1]; acceptor Methylβgalactopyranosyl β1,3-galactopyranoside (Galβ1,3-Galβ-OMe), 8.4 mM) was 0.964 nmol/min. The “Sialyltransferase activity Relative activity (%)” value ([1]; acceptor Methylβglucopyranoside (Glcβ-OMe), 42 mM, lactose = 100) was 0.5%, the Sialyltransferase activity ([1]; acceptor Methylβglucopyranoside (Glcβ-OMe), 42 mM) was 0.009 nmol/min and the “Sialyltransferase activity Relative activity (%)” value ([1]; acceptor Methylβmannopyranoside (Manβ-OMe), 42 mM, lactose = 100) was 0.4%. The Sialyltransferase activity ([1]; acceptor Methylβmannopyranoside (Manβ-OMe), 42 mM) was 0.008 nmol/min, the “Sialyltransferase activity Relative activity (%)” value ([1]; acceptor N-Acetylgalactosamine (GalNAc), 42 mM, lactose = 100) was 12.2% and the Sialyltransferase activity ([1]; acceptor N-Acetylgalactosamine (GalNAc), 42 mM) was 0.228 nmol/min. For the same molecule, the “Sialyltransferase activity Relative activity (%)” value ([1]; acceptor N-Acetylglucosamine (GlcNAc), 42 mM, lactose = 100) was 0.4%, the Sialyltransferase activity ([1]; acceptor N-Acetylglucosamine (GlcNAc), 42 mM) was 0.008 nmol/min and the “Sialyltransferase activity Relative activity (%)” value ([1]; acceptor N-Acetyllactosamine (Gatβ1,4-GlcNAc), 42 mM, lactose = 100) was 99.3%. For the same molecule, the Sialyltransferase activity ([1]; acceptor N-Acetyllactosamine (Gatβ1,4-GlcNAc), 42 mM) was 1.861 nmol/min and the “β-galactoside-α2,6-sialyltransferase activity (PA-6′-sialyllactose detected)” value [2] was “found to have β-galactoside-α2,6-sialyltransferase activity”.
